Assay results taken from patent publication US20240287172A1 (SCIRHOM, published 2024).

Assays:
hiR2-FL-L539A-T7 = target: T1, hiR2-FL-L539A-T7 (human, UniProt Q6PJF5 1-856); assay: FACS on MEF-DKO-hiR2-FL-L539A-T7 cells
T1 construct: on MEF-DKO cells
T1 sequence: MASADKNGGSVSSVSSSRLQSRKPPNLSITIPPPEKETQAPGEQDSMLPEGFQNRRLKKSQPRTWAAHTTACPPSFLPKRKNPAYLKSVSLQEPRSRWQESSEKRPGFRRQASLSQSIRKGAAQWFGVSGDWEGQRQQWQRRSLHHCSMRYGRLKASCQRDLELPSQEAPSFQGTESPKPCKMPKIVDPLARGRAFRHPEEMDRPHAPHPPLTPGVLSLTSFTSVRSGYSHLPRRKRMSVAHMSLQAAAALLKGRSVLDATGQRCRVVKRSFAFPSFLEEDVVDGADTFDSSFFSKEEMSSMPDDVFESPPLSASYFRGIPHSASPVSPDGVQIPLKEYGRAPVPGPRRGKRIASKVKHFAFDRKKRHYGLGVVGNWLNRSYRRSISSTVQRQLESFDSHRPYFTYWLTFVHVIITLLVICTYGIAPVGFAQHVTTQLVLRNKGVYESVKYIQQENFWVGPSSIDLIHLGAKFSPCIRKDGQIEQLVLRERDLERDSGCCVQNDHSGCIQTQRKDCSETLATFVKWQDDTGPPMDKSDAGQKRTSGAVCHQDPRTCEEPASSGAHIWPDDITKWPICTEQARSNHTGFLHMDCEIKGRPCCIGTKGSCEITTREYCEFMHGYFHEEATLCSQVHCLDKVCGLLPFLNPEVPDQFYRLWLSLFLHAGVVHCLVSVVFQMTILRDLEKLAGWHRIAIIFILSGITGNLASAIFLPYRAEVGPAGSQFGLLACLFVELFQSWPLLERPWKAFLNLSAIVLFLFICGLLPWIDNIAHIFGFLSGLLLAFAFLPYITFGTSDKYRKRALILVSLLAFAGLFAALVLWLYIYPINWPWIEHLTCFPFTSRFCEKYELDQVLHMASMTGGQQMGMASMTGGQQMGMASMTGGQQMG

hiR2-FL-H505R-T7 = target: T2, hiR2-FL-H505R-T7 (human, UniProt Q6PJF5 1-856); assay: FACS, MEF-DKO cells, 3 µg/ml
T2 sequence: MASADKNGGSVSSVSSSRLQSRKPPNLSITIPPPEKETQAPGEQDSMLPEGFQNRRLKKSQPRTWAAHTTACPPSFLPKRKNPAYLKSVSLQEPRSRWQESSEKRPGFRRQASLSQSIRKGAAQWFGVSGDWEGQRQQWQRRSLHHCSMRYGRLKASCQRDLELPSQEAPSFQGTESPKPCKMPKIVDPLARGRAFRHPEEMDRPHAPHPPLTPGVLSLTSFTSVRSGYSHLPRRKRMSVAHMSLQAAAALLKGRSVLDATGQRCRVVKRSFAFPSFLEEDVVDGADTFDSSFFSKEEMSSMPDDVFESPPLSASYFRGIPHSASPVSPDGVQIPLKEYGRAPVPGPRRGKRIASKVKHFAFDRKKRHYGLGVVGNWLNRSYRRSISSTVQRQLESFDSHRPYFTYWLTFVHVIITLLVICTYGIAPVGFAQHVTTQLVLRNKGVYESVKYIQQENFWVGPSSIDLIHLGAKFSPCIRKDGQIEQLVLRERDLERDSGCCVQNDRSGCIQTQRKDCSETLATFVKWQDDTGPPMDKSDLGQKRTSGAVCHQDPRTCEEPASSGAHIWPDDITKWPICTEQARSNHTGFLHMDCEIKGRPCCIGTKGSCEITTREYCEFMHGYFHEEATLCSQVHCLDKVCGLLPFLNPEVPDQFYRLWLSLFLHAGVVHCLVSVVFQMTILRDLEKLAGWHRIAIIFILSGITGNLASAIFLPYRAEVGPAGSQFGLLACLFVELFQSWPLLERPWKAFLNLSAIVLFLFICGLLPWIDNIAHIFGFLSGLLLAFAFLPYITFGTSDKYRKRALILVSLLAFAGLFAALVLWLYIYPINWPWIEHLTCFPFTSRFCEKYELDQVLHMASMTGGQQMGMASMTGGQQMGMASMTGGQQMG

B1: antibody 3 (antibody, V domains shown)
VH: QVTLKESGPGILQPSQTLSLTCSFSGFSLTTFAMGIGWVRQPSGKGLEWLAHIWWDGEKYNNPVLKSRLTISKDTSKNQVFLRIANVDTPDTATYYCARISSIYYIIDNWGQGTSVTVSS
VL: DIVLTQSPATLSVTPGHSVSLSCRASQSISNNLHWYQKKSHESPRLLIKYVSQSISGIPSRFSGSGSGTDFTLSINSVETEDFGMYFCQQSYNWPLTFGAGTKLELK
notes: mouse IgG, kappa light chain; also called clone #3; purified antibody 3
- binding result (hiR2-FL-L539A-T7): no binding (tested: 3 µg/ml)

B2: antibody 50 (antibody, V domains shown)
VH: QVQLQQSGAELVRPGASVKVSCKASGYAFSNYLIEWVKQRPGQGLEWIGVINPGSGFTKYNEKFKGKATLTADKSSSTAYMQLSSLTSEDSAVYFCARGLYRAMDYWGQGTSVTVSS
VL: DIQMTQSPASQSASLGESVTITCLASQTIGTWLAWYQQKPGKSPQLLIYAAASLADGVPSRFSGGGSGTKFSFKISSLQAEDFVNYYCQQIYSTPYTFGGGTKLEIK
notes: mouse IgG, kappa light chain; also called clone #50; purified antibody 50
- loss of binding vs wild type (hiR2-FL-H505R-T7): ≥ 95%
